The target of data set [1] is E. coli FtsZ, purified (GTP-polymerized in the assays) (E. coli) (UniProt P0A9A6). Kind of data set: co-sedimentation; co-sedimentation with GTP-polymerized FtsZ carried out similarly to Fig 2 panel A; data fitted with Hill model y = x^n/(Kd+x^n).
Data set [2] concerns the molecule itself. Kind of data set: 90° angle light scattering; FtsZ (12 μM) alone or with MBP-ABDOM (12 μM) or MBP in 50 mM PIPES pH 6.0, 1 mM EDTA, 5 mM MgCl2, 30 °C; polymerization induced by 1 mM GTP.

The text below walks through data of publication PMC4440785, “Cytoplasmic Domain of MscS Interacts with Cell Division Protein FtsZ: A Possible Non-Channel Function of the Mechanosensitive Channel in Escherichia Coli” (PLoS ONE, 2015).

Regarding “MBP-ABDOM-K258A/R259A (from UniProt P0C0S1 175-265) (domain or fragment)”, the dissociation constant (Kd) in data set [1] came to 14.6 µM.

In data set [1], “MBP-ABDOM (ABDOM of MscS with N-terminally fused maltose binding protein) (from UniProt P0C0S1 175-265) (domain or fragment)” showed a dissociation constant (Kd) of 5.3 µM.

B1: E. coli FtsZ, purified (GTP-polymerized in the assays) (natural protein, UniProt P0A9A6 1-383, looked up)
chain: MFEPMELTNDAVIKVIGVGGGGGNAVEHMVRERIEGVEFFAVNTDAQALRKTAVGQTIQIGSGITKGLGAGANPEVGRNAADEDRDALRAALEGADMVFIAAGMGGGTGTGAAPVVAEVAKDLGILTVAVVTKPFNFEGKKRMAFAEQGITELSKHVDSLITIPNDKLLKVLGRGISLLDAFGAANDVLKGAVQGIAELITRPGLMNVDFADVRTVMSEMGYAMMGSGVASGEDRAEEAAEMAISSPLLEDIDLSGARGVLVNITAGFDLRLDEFETVGNTIRAFASDNATVVIGTSLDPDMNDELRVTVVATGIGMDKRPEITLVTNKQVQQPVMDRYQQHGMAPLTQEQKPVAKVVNDNAPQTAKEPDYLDIPAFLRKQAD
notes: cell division protein FtsZ, E. coli, from pET11-ftsZ (gift of H. P. Erickson); also called polymerized FtsZ; assembled FtsZ; source: E. coli BL21(DE3) carrying pET11-FtsZ, purified by GTP-induced precipitation (four times)
As to B1, the binding result in data set [2] was “binds”.
